Experiment [1] has as its target CD3 on Jurkat cells and on PBMCs (UniProt P07766). Kind of experiment: flow cytometry; second Fab-multimer staining of PBMCs that had been stained reversibly, treated with D-biotin and washed (control panel, far right). (In general: A flow cytometer gives signals particle by particle.)
For experiment [2], the target named is CD28 on cells (PBMCs, T responder cells) (human) (UniProt P10747). Kind of experiment: flow cytometry; Fab monomers remaining on the liberated CD28+ cells after D-biotin and washing, detected with an antibody against the immunoglobulin kappa light chain.

UniProt P07766, sequence (P07766 23-207): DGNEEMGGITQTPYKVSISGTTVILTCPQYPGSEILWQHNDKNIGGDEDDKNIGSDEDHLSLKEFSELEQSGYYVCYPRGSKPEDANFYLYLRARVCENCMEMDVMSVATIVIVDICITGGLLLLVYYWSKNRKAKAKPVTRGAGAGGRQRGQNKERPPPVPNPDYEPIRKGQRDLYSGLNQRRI

Take “OKT3 Fab fragments multimerized by reversible binding to soluble Strep-Tactin conjugated with phycoerythrin”: the % of cells within gate in experiment [1] amounted to 64.7%. Turning to “anti-CD28 Fab fragment derived from antibody CD28.3, heavy chain C-terminally fused to Twin-Strep-tag (monomeric Fab)”, the % of cells within gate in experiment [2] was 5.91%.

Values taken from patent publication US20200017880A1.
